Data from the supplement of paper PMC9170038.

Tests used:
[1] = system: MS2 coat protein; assay: apparent KD of MS2 coat protein, switch OFF state (with FMN for OFF switches, without FMN for ON switches); designed switch direction (-1 OFF switch, 1 ON switch): -1; higher = weaker reporter binding; details: FMN input: 0 or 200 uM; Eterna round: R93 (includes R88 designs)
In short: (§1)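 Apparent KD is reported per design as the median of normalised binding-curve fits across its clusters. The RNA switches were made by on-chip transcription from Illumina sequencing clusters. SNAP-549-labelled MS2 coat protein was then added in twofold steps (0.7 or 1.5 nM to 3 µM; 0.8–1.5 h to 10–20 min per step) in 100 mM Tris-HCl pH 7.5, 80 mM KCl, 4 mM MgCl2, without or with constant ligand.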

[2] = system: MS2 coat protein; assay: apparent KD of MS2 coat protein, switch ON state; designed switch direction (-1 OFF switch, 1 ON switch): -1; higher = weaker reporter binding; details: FMN input: 0 or 200 uM; Eterna round: R93 (includes R88 designs)
In short: as §1

Row | Sequence | apparent KD of MS2 coat protein [1] [nM] | apparent KD of MS2 coat protein [2] [nM]
1 | AAGGGACAUGAGGAUCACCCAUGUCAGGAUAUGAUGCGAAUAAAGAAAGAAGAAAGCAUCAGAAGGGACGCCUA [58%, Disencluded 3, 6] | 27.6 | 19.3
2 | AAGGGACAUGAGGAUCACCCAUGUCAGGAUAUGCGAAAAAAAAAAAUAAAAAAAAAAAGCAGAAGGGACACCAA [Mat - Exclusion 1 - Eli mod - D58] | 102 | 104
3 | AAGUACUCAGGAUAUACAUGAGGAUCACCCAUGUGAAAAAAGCGUAAAAAACGCACAUGUAGAAGGGAGUACAA [JL In thr Red Again] | 333 | 122
4 | AAGUUAUUAGGAUAUACUAGUGCAAUUAAUACGCUGAUAGUACAUGAGGAUCACCCAUGUAGAAGGAAUAAAAA [Mat - Exclusion 2 - JL mod - D66] | 20.6 | 30.5
5 | AAGUUAUUAGGAUAUACUAGUGCGAUUAAUACGCUGAUAGUACAUGAGGAUCACCCAUGUAGAAGGAAUAAAAA [JR_Exc002_Sub409] | 19.1 | 35.1
6 | AAGUUAUUAGGAUAUACUUGUGCGAUUAAUACGCUGAUAGUACAUGAGGAUCACCCAUGUAGAAGGAAUAAAAA [JR_Exc002_Sub410] | 21.2 | 33.4
7 | AAUAAACAUGAGGAUCACCCAUGUCAGGAUAUGCACAAACAAACAAACAAACAAGCAAGCAGAAGGGACACUAC [Amethyst 88] | 28.6 | 25.4
8 | AAUAAAGGAGGAUAUACUAAAGAAAUGAAAAGAAAUAAAGAACAUGAGGAUCACCCAUGUAGAAGGCCUAAUAA [Yaqub-Har] | 22.8 | 31.3
9 | AAUAAGACAGGAUAUACUAAAGAAAUGAAAAGAAAUAAAGAACAUGAGGAUCACCCAUGUAGAAGGGUCAAUAA ['Apepi] | 32.4 | 50.3
10 | AAUAAGUGAGGAUAUGGAAAUAGUAGAUAAGAUACCCUAAACCAGAAGGCACAUGAGGAUCACCCAUGUAAAUA [JR_Exc004_Sub004] | 23.7 | 32.7
11 | AAUAAGUGAGGAUAUGUAAAUAGUAGAUAAGAUUCCCUAAAACAGAAGGCACAUGAGGAUCACCCAUGUAAAUA [JR_Exc004_Sub007] | 19.7 | 25.9
12 | ACAAAUGUAGGAUAUACAUGAGGAUCACCCAUGUGGCAGAAACAGCAAACAAGACGAAGUAGAAGGACAACGAC [JR_Exc003-Sub902] | 28.6 | 29.1
13 | ACAGUUACAGGAUAUACAAGGGUAACUUCAAAUAAACCUCUACAUGAGGAUCACCCAUGUAGAAGGGUAACUGA [Ex2 Design 200 (maybe): Random 16] | 21.7 | 22.8
14 | ACAGUUAGAGGAUAUACGUGGAAAAAUAAAAAUAAAAAACUACAUGAGGAUCACCCAUGUAGAAGGCUAACUGA [Ex2 Design 196: Random 12E] | 66.1 | 24.8
15 | ACCAGACAUGAGGAUCACCCAUGUCAGGAUAUAGUAUGAAAAAAAAAAAAAAAAAAUACUAGAAGGGACAAGGG [Design 14: Super Stable Short Helix 5] | 63.8 | 29.7
16 | ACGUUGAGAGGAUAUACGAACAUGUCAAAAGACGUGAAGGGACAUGAGGAUCACCCAUGUAGAAGGCUCAACGA [Mat - Exclusion 2 - JL mod - D9] | 186 | 46.3
17 | AGAAACUGAGGAUAUACUUUGGGAAAAGAAAAGAUGAUGUUACAUGAGGAUCACCCAUGUAGAAGGCAGAAAGA [Mat - Exclusion 2 - Mod - D152] | 30.3 | 25.5
18 | AGAAAGUCAGGAUAUACGAAAAAGAAAAAAGACGAGAACGGACAUGAGGAUCACCCAUGUAGAAGGGACAAGAA [Diamond 14] | 51.4 | 66.4
19 | AGAAAGUCAGGAUAUACGAAUAAGAAUAAAGACGAGAUCGGACAUGAGGAUCACCCAUGUAGAAGGGACAAGAA [Diamond 17] | 74.7 | 121
20 | AGAACACAUGAGGAUCACCCAUGUCAGGAUAUUCAAACAAAAACAAAACAAAACAAACGAAGAAGGGACAAAAG [May 2] | 36 | 32.3
21 | AGAUGACAUGAGGAUCACCCAUGUAAGGAUAUACGAGUAGGAGAAUAAAAUGAUAGAAGUAGAAGGUACGUAGA ['Exclusion 1' Lab (2)] | 58.1 | 68
22 | AGCAAGUGAGGAUAUCUGGAUAGGAAAAAGAAAACCUAUCCAGAGAAGGCACAUGAGGAUCACCCAUGUAAAAA [JL cataway mod 7] | 41.4 | 39.1
23 | AGCUACUGAGGAUAUACGAACAUGUCAAAAGACGUAAGGGAACAUGAGGAUCACCCAUGUAGAAGGCAGUAGCA [Diamond 49] | 91.9 | 44.5

Row | Sequence | apparent KD of MS2 coat protein [1] [nM] | apparent KD of MS2 coat protein [2] [nM]
24 | AGCUAGUCAGGAUAUACGAAAAUGCUAGAAGACGUAAGGGAACAUGAGGAUCACCCAUGUAGAAGGGACUAGCA [Diamond 46] | 30.4 | 21.9
25 | AGCUAGUCAGGAUAUACGAACAAGAAAAAAGACGAGAACGGACAUGAGGAUCACCCAUGUAGAAGGGACUAGCA [Diamond 9] | 26.3 | 23.8
26 | AGCUAGUGAGGAUAUACAAGAAUAUAAACGAACAUAAAGGGACAUGAGGAUCACCCAUGUAGAAGGCACUAGCA [Diamond 73] | 152 | 42.6
27 | AGCUAGUGAGGAUAUACGAACAUGUCAAAAGACGUGAAGGGACAUGAGGAUCACCCAUGUAGAAGGCGCUAGCA [JL 74% mod] | 157 | 53.4
28 | AGCUGGUCAGGAUAUGCGUGAAGAAUAAAACAAAUAACAACGCAGAAGGGACAUGAGGAUCACCCAUGUCAGCA [May 50] | 20.3 | 23.9
29 | AGGAAACAUGAGGAUCACCCAUGUCAGGAUAUACAAAAGAAAAGAAAAGAAAGAAGAAGUAGAAGGGACACGAA [Double Falcon] | 22.5 | 25.1
30 | AGGAAACAUGAGGAUCACCCAUGUGAGGAUAUUGAAAAGAAAAGAAAAGAAAGAAGAACAAGAAGGUACAAGAA [Nyuserre Ini] | 27.3 | 22.3
31 | AGGUGACAUGAGGAUCACCCAUGUCAGGAUAUAUACACCACCGGCGUGAAGCCGGCGGAUAGAAGGGACAAAAU [Anesar] | 18.2 | 15.6
32 | AGUAUGCGAGGAUAUACAUGAGGAUCACCCAUGUGAGAGAUAAAAGUGAGAAAGAAAAGUAGAAGGCGCGUACA [JL Lego Mod 21] | 326 | 50.7
33 | AGUAUGCGAGGAUAUACAUGAGGAUCACCCAUGUGAGAGAUAAGAGUGAGAAAGACAAGUAGAAGGCGCGUACA [JL Lego Mod 25] | 71.7 | 78.4
34 | AGUCAUACAGGAUAUACAUGAGGAUCACCCAUGUAAAUCCUAAAAAAGUGAUCCUCAUGUAGAAGGGUAUGACA [EX3 220: Super Stable 20] | 19.7 | 19.1
35 | AGUCUGAGAGGAUAUACAUGAAAAAAAAAAGUAAGAUCCCUACAUGAGGAUCACCCAUGUAGAAGGCUCUGACA [Ex2 Design 145: Sub-opt 9] | 29.4 | 31.4
36 | AGUCUGAGAGGAUAUACAUGGGAAAAAAAAGUCAGAUCCCUACAUGAGGAUCACCCAUGUAGAAGGCUCUGACA [Ex2 Design 147: Sub-opt 11] | 11.4 | 22.2
37 | AGUGAGUGAGGAUAUGCCUGAAGAAUAAAAGAAAUAACGAGGCAGAAGGCACAUGAGGAUCACCCAUGUACACA [May 65] | 28.2 | 32.1
38 | AGUGAGUGAGGAUAUUACUGAAGAAUAAAAGAAAUAACGAGUAAGAAGGCACAUGAGGAUCACCCAUGUACACA [May 62] | 24 | 25.5
39 | AGUUGGCGAGGAUAUACAUGAGGAUCACCCAUGUAAAAUAAAUAAAAAAGGGAAGAAAGUAGAAGGCGCUGACA [73%, Moding Norbert Elias, 11] | 175 | 40.5
40 | AGUUGGCGAGGAUAUACAUGAGGAUCACCCAUGUGAAAGAAAAAAGUGAAAAAGAAAAGUAGAAGGCGCUGACA [73%, Moding Norbert Elias, 4] | 131 | 31.3
41 | AUAAAGUCAGGAUAUGUAAAAAUAACGAAAGUUAUAAAUAAACAGAAGGGACAUGAGGAUCACCCAUGUACAAU [Opal 15] | 21.2 | 25.4
42 | AUAAAGUGAGGAUAUGCUAAUAAAUAAAUAGACAAAUAAAUGCAGAAGGCACAUGAGGAUCACCCAUGUAAGAA [Ex 4 Tesla 3] | 28.9 | 28.4
43 | AUAAUACAUGAGGAUCACCCAUGUCAGGAUAUGCUAAAAUUAAAAUUAAAUCAAAAAUGUAGAAGGGACUAAAU [Exclusion Z3] | 42.9 | 49.8
44 | AUAAUGUCAGGAUAUCAGUAGUAAAAAAAAAAAAUUACUACUGAGAAGGGACAUGAGGAUCACCCAUGUCAAAA [EX4 307: Super Stable 7] | 24.9 | 27.6
45 | AUCUAGUCAGGAUAUGACUACAUAAAAAAUAAAAAAUGUAGUCAGAAGGGACAUGAGGAUCACCCAUGUACUAA [Mat - Exclusion 4 - Eli mod - D95] | 29.3 | 26.3
